Stoichiometry N data for one substance are collected here from publication doi:10.1101/2020.10.01.322081.

Values joined by “and” are separate entries in the source; they are usually repeats but may differ in a detail not shown here. Equal values may be shown once. Read-outs that look alike come from different tables or passages of the source.

Assay [1] concerns the target HIV-1 Gag polyprotein in the immature Gag lattice of purified virus particles (HIV-1). Put plainly: cryo-EM structure.
Assay [2] has the same target. In words: cryo-EM structure. This is another data set of the same source.

Consider “HIV-1 Gag polyprotein in the immature Gag lattice of purified virus particles (natural protein)”, for which the stoichiometry N in assay [1] was 2; in assay [2] it was 3 and 5.
